# Experiment: soluble on expression in E. coli; label from the status in PepcDB or PDB records
row,Sequence,soluble on expression in E. coli
1,FQRSTPAITLESPDIKYPLRLIDREIISHDTRRFRFALPSPQHILGLPVGQHIYLSARIDGNLVVRPYTPISSDDDKGFVDLVIKVYFKDTHPKFPAGGKMSQYLESMQIGDTIEFRGPSGLLVYQGKGKFAIRPDKKSNPIIRTVKSVGMIAGGTGITPMLQVIRAIMKDPDDHTVCHLLFANQTEKDILLRPELEELRNKHSARFKLWYTLDRAPEAWDYGQGFVNEEMIRDHLPPPEEEPLVLMCGPPPMIQYACLPNLDHVGHPTERCFVF,soluble
2,MAEVLKKVDVVTVGAGWTGGIVAAELTKAGLNVLSLERGHMQSTENFNYIHDEWRYGINYGLMQDCSKDTVTFRHDPSGLALPYRKMGSFLLGNNVGGAGVHWNGWTFRFMPYDFEIQTLSKQRYGNKLGNDYTLQDWGVTYKDMEPYYDRFEKTCGVSGEPNPLAEKMGAFRSSPYPQEPLENTKMLKRFESAAKSSNLHTYRLPASNSKGGYTNPDGQDLAPCQYCAYCERFGCEYGAKASPLNTVIPKAMSTGKYTIRTYSNVTQILKKDGKVTGVKFVDTRTMKEYIQPADIVVLTSYMFNNAKLLMVSNIGEQYDPKTGKGTLGRNYCYQMNMGTTAFFDEQFNTFMGSGALGTTSDDFNGDNFDHSKEKFLHGAMIYSVQLGTRPIQSAPLPAGAPTWGAEFKKALNYNFTRAITVGGQGASLPHKNNYLSLDPTYKDAFGMPLLRLTYNFTDQDRALHKFITDKTAEVAKRMQGVKSIKKGAYLKDYSVVPYQSTHNTGGTTMGADRETSVVNTYLQHWDADNLFVVGAGNFQHNSGYNPTDTVGALAYRCAEGILKYHKSGKSLALEHHHHHH,not soluble
3,MIPVERHQQILALIAERGAVSINELTERLGVSHMTVRRDVQKLEQDGLLLSVSGGVRSPERLATEPSHQDKSVMFSQQKAAMGKLAAQHIPLNSCIYLDAGTTTLSLARELAERDDLLIVTNDFAIAAFLIESSQCRMIHTGGTLCRENQSCIGEAVAQALRNLFIDIAFISASSWSLRGLSTPNEDKVVVKRAAVEASRKRVLLCDTSKYGRIATHLATPLDVFDSIITDDGLPVAAKEALSKMGVEVLVAG,not soluble
4,MAHHHHHHMRMSLTTRRPFCPVLLNIGSSRAVTLSHFHAKVCPSITATVKQTIRELDDEASPNHQRRQESCFSSGELRLRPYGFSPERPQLQHESWSCAWHSYLNAVRLRGEVSAAGVAPLPPTATSANSTSHNDDEFFPMTGTLTLPVPVVVPTSNNEPSNETIMMEFFRVDAFIPVRVQMYHVMRRLIKMQAVWNNIVAIGIVVPTHEVEYFISAARAAHASDGERTPHALLSRKPSVLVYDPEGLRFQAPESKRLRK,not soluble
5,MGSDKIHHHHHHMKFFSAPSPATRPPMRNRLPPLNPLRAFEAAARCGTVSAAADELHVTASAVSHQIRILESTLGVALFVRSKARVKLTPEGEALLEPVGAAFDMIANATVRLDSPAAAGDLVVSTPLSLTSRWLARHIGDFLERYPGIHLKVIPSNDDRETYSPDVDVCIRYGEGNWRNRRVELLAHPALFPVVSPALMNGPDAIRKVQDLAGRTLFCEHAGSWMRWLAEANADKLPGIRILEIGNAHIGVEAAVHGQGVALGDSLSVRDDLLDGTLVRPFSAAVPSRHAYYLVTRHELADSPLVTAFTTWLRACLA,not soluble
6,MGSDKIHHHHHHMASLQIAHNTRIVKEAARIAGFDYCGISAARFLEEEAPRLESWLNRNQHGTMSWMENYFDKRLDPRKLVDGAKSVVSVLLNYTPAPEDEILSTGETKISRYAYGKDYHYVLKDKFKQMLQHITEQIGEVNGRAFVDSAPVMDKAWAKQGGLGWVGKHSNIITKDSGSYFFIGELIIDLELDADGPIKDYCGTCTRCIDACPTNAITEPYQVDGSKCISYLTIELKEQIPSEFKEQMQGWAFGCDICQEVCPWNRFAQPINKNEFSPSEELKKYFEMPLKEITKEVFNILFKDSTIKRTKIEGLSRNLTFIKKET,not soluble
7,MSAEEKNLIEILEEGHKVDVVKYIDYVSAPQAGAIATFSGTTRDMFEGKTVLELRYEAYVPMATRCLSSICTTARSTWDIHKIAVAHRLGPVPVGETSVLIAVSSVHRADGLDACKFLIDELKASVPIWKKEVYTNGEIWKENSEFMEKRLELAEKRDSIVKKTVVEEHRRRGCCGSKVRVEEDEEHKDITGDNKSSS,soluble
8,MPGQKQKGKKNVRRTKTRFELIEPSKGQLIAEVEDTHGGYPPRFSCKTVDGDIIIAPIQGSIMKGPKRVLVKKDNLVLLVPIDFTTGKEGTTSYYIHHVYTSEDRHQLEKKGFLEKKDKISDATKSTKVVFGVESSDKSLEKAKDEELDIDTI,not soluble
9,MGSDKIHHHHHHMKITVLYSGNYGERVLNTILEKFAQNIVSIHEIPENLPEYIDDVSEYVPENLKESDLIISVGLFGDINLIVCDIAKKTNAKSIIIESHSPKQVTKGLKSEISDSLNEIKIVFPKPFCSLKPVGDTYIDEFAKYFGSPEIEIIGETIVKSVIVKRNAPCGSTKYVAENLTGYSLNEVEFESGNKLHNYPCLASMDVDNEIGDTILHLAGYKIKEAVKKSLKFSNKILTVTGDCKGFECGFKCYKICPVVKMGENAVEIEKTHVNINNLFCGCCMKCVDICPFNAIKVLNYKI,not soluble
10,NLYFQSARFALTVVRHGETRFNKEKIIQGQGVDEPLSETGFKQAAAAGIFLNNVKFTHAFSSDLMRTKQTMHGILERSKFCKDMTVKYDSRLRERKYGVVEGKALSELRAMAKAAREECPVFTPPGGETLDQVKMRGIDFFEFLCQLILKEADQKEQFSQGSPSNCLETSLAEIFPLGKNHSSKVNSDSGIPGLAASVLVVSHGAYMRSLFDYFLTDLKCSLPATLSRSELMSVTPNTGMSLFIINFEEGREVKPTVQCICMNLQDHLNGLTETR,soluble
11,MGSDKIHHHHHHMKDVARDIYLSRDKIDEIKRKRFRSTLKYVYDNSPFYRRLFKESGVDIDSIKEPADIAKLPFTTKQNLRESYPLKMACVEKEKIVRIQMSGGTTGQPVIIPYTRHDVEQWKEMLLRDFYLAGITSKDVIQITPAFGLWNGGFGFHFAADAIDAFVIPIGAGNTRNQVRFMVDFGTTVLCATASYPLRIAEVAEEMGYEPAELPVQKMLLGAEPWSEEMRRQIEKTFNCKAFDIPGLTEMGGVGTVGFECPSRNGLHIWEDNYIVEIVDPETGEVLEDGEEGEIVYTSLNREAMPLIRYRSGEVSAVVSREKCECGIEHMTIKRIRGRTDDMVIYKGVKFYPSDVEQILASYGVRHYRIEVGEGIRVIFEGENGLARKVIKDIKEFLGFSPRIEVVQPGSLERFEGKAKRLFRG,not soluble
12,MGSDKIHHHHHHMDIKQIRYFIAIVENHFNLSQAAELLYVSQPTLSMMINDFEKRENVKLFKRKRGRIIGLTYLGDNYYKDAQKVLSLYDDMFLKLHDHSKGLKGSINIGIPPLILSVVFSEVMPKLILENPGIQFNVKEIGAYQLKNELLVGNVDVAVLLSPTGIADNLVETYEIQRSELSVCLSPRHRLASKKVIQWEDLTDEQLALFDPSFMVHHLVLEACERHQVRPNIILTSSSWDFMLNSTKINHNVLTICPKPITELYQLKDIKCIPMERPISWRVVLTRLRKKSYSEIEAYIMDDLLQSFFK,not soluble
13,MGSDKIHHHHHHMSASMPAYMSDPTDEQLSALNMAMDHKSFKVVAYAGAGKTTTLKLIGERLRGRGLYLAFNKAIANDARAKFPSHVECRTFHSLAYRHVARDITAKLSLPRFSPKRLGDDLGLQPVQVRRQMDGVNKYITLTPARLSRFVSDAISNFCSTHASYPAPRHILFPSWLDGSDAEQLREMLYPAVEQRWLQSIDARHPAGIGHDIYLKLWALSKPSIPADFILFDEAQDADPLMMGILTQQPRQVIYVGDAHQQIYEWRGAVNAMKRLPLPQTLLTQSFRFGEPIAEIANTLLKALQEDVPLKGNPNKQSSTDKGMVHSKKDAILCRTNAAAMSQLLTGLKLGHKVALQADTDRMLKFCQAAENLKNGKSAYGVPELAYFYNWGDVQEYSETNEGSDLKTLVKLVDDHGTNVLSQAVNSLSSIENADYVISTAHKAKGLEWGKVQLDDDFYYDVTTNAVKISPEELRLLYVACTRAQSNLDIHNIKDLISGLQTGKKVVFGNS,not soluble
14,MTNDNSGIWVLGYGSLIYKPPSHYTHRIPAIIHGFARRFWQSSTDHRGTPANPGRVATLIPYEDIIRQTAFLKNVNLYSESAPIQDPDDLVTIGVVYYIPPEHAQEVREYLNVREQNGYTLHEVEVHLETNREHEAELGEALEQLPRHNKSGKRVLLTSVYIGTIDNEAFVGPETVDETAKVIAVSHGPSGSNYEYLAKLEQALAQMPIMKERGRITDHYLTALLETVNKYR,soluble
15,MAELYVKPGNKERGWNDPPQFSYGLQTQTGGPKRTPLTKRVAAPQDGSPRAPETSGPPPVDHPPPSSKASRPPPMGSCPATGVEPPSSPVIESETLIEDVLRPLEQALEDCHGHTKKQVCDDISRRLVLLREQWAGGKLSIPVKKRMALLVQELLHHQWDAADDIHRSLMVDYVTEVSQWMVGVKRLIAEKRSLSSEETKEEKFTVEPENQTIPGFQQPS,not soluble
16,MEEAVSPLGLDVLEVHFARGELLVRLERKDERPITVADLEEASRHIEAALDREDPIPGSYRLLVESPGPKRPLFTRRHFERFQGLKAKVPGPEGFTGRILRVEGEEVVFQVGDEERRLRIGTFRANLAEWPEEPR,soluble
17,MASTNTNLQKAIDLASKAAQEDKAGNYEEALQLYQHAVQYFLHVVKYEAQGDKAKQSIRAKCTEYLDRAEKLKEYLKKKEKKPQKPVKEEQSGPVDEKGNDSDGEAESDDPEKKKLQNQLQGAIVIERPNVKWSDVAGLEGAKEALKEAVILPIKFPHLFTGKRTPWRGILLFGPPGTGKSYLAKAVATEANNSTFFSISSSDLVSKWLGESEKLVKNLFQLARENKPSIIFIDEIDSLCGSRSENESEAARRIKTEFLVQMQGVGVDNDGILVLGATNIPWVLDSAIRRRFEKRIYIPLPEAHARAAMFRLHLGSTQNSLTEADFQELGRKTDGYSGADISIIVRDALMQPVRKVQSATHFKKVRGPSRADPNCIVNDLLTPCSPGDPGAIEMTWMDVPGDKLLEPVVSMWDMLRSLSSTKPTVNEQDLLKLKKFTEDFGQEG,soluble
18,MGSDKIHHHHHHMSLRRIMVTAVRNLHPVTLLPSPRINILYGANGSGKTSVLEAVHLLGLARSFRSTRLNPVIQYEQAACTVFGEVQLTEGGTSNLGVSRERQGEFTIRIDGQNARSAAQLAELLPLQLINPDSFRLLEGAPKIRRQFLDWGVFHVEPRFLPAWQRLQKALRQRNSWLRHGTLDPASQAAWDRELCLASAEIDEYRRNYIKALKPVFERTLSELVELDGLTLSYYRGWDKDRELQEVLASSLLRDQQMGHTQAGPQRADLRLRLAGNNAADILSRGQQKLVVCALRIAQGHLVSQARRGHCIYLVDDLPSELDDQHRRALCRLLEELRCQVFITCVDHELLREGWQTETPVALFHVEQGRITQTHDHRE,not soluble
19,MSLDVTLTQPSIPDQSEDRRVRTSGSLAGHLPYGMADTLGKHEHLSTVDLVVPRFNASETEMLLGLFDGQALSSGGSKIAKYLHENFGHIFALELKALKTRLNETPVDALRRAFLALNKDLVTIAIQQSEERPIQTHRNSGQPIILTKEDLNSGGVATVVYLQSTELYVANVGDAQAMVIQTDGTHKMLTRKHDPAEPTERSRIREAGGWVSRNGRLNDLLQVSRAFGYVDLMPAVQAAPYVSNMTIREQDDIILIATGELWEYLSPGLVTDVARAERQDLMRAAQKLRDLAIAYGASGKIMVMMISVADEGHHHHHH,soluble
20,MAPGTKKKSDMAKFTFYKDRLMTFKNFEYDRDPDAKCTSQAVAQAGFYCTGPQSGKCAFCNKELDFDPEDDPWYEHTKRDEPCEFVRIGKLDDSELTINDTVRLSQTAMIMTKLFEHEMMINNLSNHSSSDALFDQLKKVPNTASTTKSNSRRGK,not soluble

# Reference: the DeepSol protein solubility set
